For assay [1], the target named is human IgG (purified human IgG; IgG in human sera) (human). Nature of the assay: cell-based or functional assay.
Assay [2] concerns the target human IgM (purified human IgM, MilliporeSigma; IgM in human sera) (human). Kind of assay: cell-based or functional assay.

The values that follow come from patent EP4611795A1.

Chain of human IgM (purified human IgM, MilliporeSigma; IgM in human sera) (human) (heavy, as listed by the source): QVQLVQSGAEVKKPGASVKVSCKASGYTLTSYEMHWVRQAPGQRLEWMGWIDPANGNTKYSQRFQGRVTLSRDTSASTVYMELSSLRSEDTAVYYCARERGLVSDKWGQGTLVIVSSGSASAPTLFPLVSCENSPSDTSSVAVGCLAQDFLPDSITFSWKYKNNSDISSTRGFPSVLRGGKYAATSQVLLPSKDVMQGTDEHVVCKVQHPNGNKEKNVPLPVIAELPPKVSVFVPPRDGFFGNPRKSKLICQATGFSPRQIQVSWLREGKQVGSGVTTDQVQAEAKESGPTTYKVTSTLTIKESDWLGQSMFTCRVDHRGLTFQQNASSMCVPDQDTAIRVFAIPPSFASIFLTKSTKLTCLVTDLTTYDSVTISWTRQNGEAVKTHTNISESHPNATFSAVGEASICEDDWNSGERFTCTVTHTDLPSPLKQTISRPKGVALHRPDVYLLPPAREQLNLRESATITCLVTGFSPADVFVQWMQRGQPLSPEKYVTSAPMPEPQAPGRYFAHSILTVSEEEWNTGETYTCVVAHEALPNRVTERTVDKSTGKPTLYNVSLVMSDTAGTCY

In turn, “IceMG (recombinant His-tagged fusion protein of IceM and IdeZ proteolytic domains with the rigid linker) (enzyme)” yielded an EC50 of IceMG enzymatic activity on IgG in human sera in assay [1] of 4.7 nM. This substance also showed an EC50 of IceMG enzymatic activity on IgM in human sera in assay [2] of 0.07 nM.
